Where no end group is shown, it is not given here.
B1: Phage-2970 (peptide)
peptide: VYPLCKPSWMCSGL
modifications: cysteine pairing not given here; also: peptide displayed as fusion to phage pIII
notes: Clonal phage of the peptide-180 optimisation library, tested as crude phage supernatant; not shown: bacteriophage pIII coat protein to which the peptide is fused for display
B2: Phage-2972 (peptide)
peptide: GDVYCKPAWMCDGF
modifications: cysteine pairing not given here; also: peptide displayed as fusion to phage pIII
notes: as for B1
B3: Phage-2962 (peptide)
peptide: VQSLCVPYWMCTGF
modifications: cysteine pairing not given here; also: peptide displayed as fusion to phage pIII
notes: as for B1
B4: Phage-2982 (peptide)
peptide: PMHACIPMWMCAGF
notes: It was tested as crude clonal phage supernatant; also called Peptide-180 library clone
B5: Phage-2979 (peptide)
peptide: SEIACRPAWMCQWL
notes: as for B4
B6: Phage-2976 (peptide)
peptide: FEMLCKPAWMCSGF
notes: as for B4
B7: Phage-2964 (peptide)
peptide: PGPLCVPEWMCIGF
modifications: cysteine pairing not given here; also: peptide displayed as fusion to phage pIII
notes: as for B1
B8: Phage-2984 (peptide)
peptide: AGIRCVPEWMCLGF
notes: as for B4
B9: Phage-2969 (peptide)
peptide: LDIWCVPAWMCHGF
modifications: cysteine pairing not given here; also: peptide displayed as fusion to phage pIII
notes: as for B1
B10: Phage-2968 (peptide)
peptide: WEAMCQPLWMCTGF
modifications: cysteine pairing not given here; also: peptide displayed as fusion to phage pIII
notes: as for B1
B11: Phage-2975 (peptide)
peptide: GVPMCVPDWMCHGL
modifications: cysteine pairing not given here; also: peptide displayed as fusion to phage pIII
notes: as for B1
B12: Phage-2981 (peptide)
peptide: DDRMCIPSWMCSGL
notes: as for B4
B13: Phage-2980 (peptide)
peptide: VEHWCRPEWMCAGF
notes: as for B4
B14: Phage-2977 (peptide)
peptide: TELRCVPSWMCTGF
notes: as for B4
B15: Phage-2978 (peptide)
peptide: FGYACIPNWMCTVF
notes: as for B4
B16: Phage-2971 (peptide)
peptide: DIPICRPQWMCIGF
modifications: cysteine pairing not given here; also: peptide displayed as fusion to phage pIII
notes: as for B1
B17: Phage-2974 (peptide)
peptide: VGAACIPDWMCVGF
modifications: cysteine pairing not given here; also: peptide displayed as fusion to phage pIII
notes: as for B1
B18: Phage-2963 (peptide)
peptide: NLPLCKPAWMCKWL
modifications: cysteine pairing not given here; also: peptide displayed as fusion to phage pIII
notes: as for B1
B19: Phage-2973 (peptide)
peptide: VSPLCVPSWMCVGF
modifications: cysteine pairing not given here; also: peptide displayed as fusion to phage pIII
notes: as for B1
B20: Phage-2967 (peptide)
peptide: GERYCVPAWMCAGL
modifications: cysteine pairing not given here; also: peptide displayed as fusion to phage pIII
notes: as for B1
B21: Phage-2983 (peptide)
peptide: PERMCRPLWMCEGF
notes: as for B4
B22: Phage-2965 (peptide)
peptide: LFKMCQPSWMCDGF
modifications: cysteine pairing not given here; also: peptide displayed as fusion to phage pIII
notes: as for B1
B23: Phage-2985 (peptide)
peptide: EEVYCVPKWMCLGF
notes: as for B4
B24: Phage-2966 (peptide)
peptide: QTPVCIPEWMCTGF
modifications: cysteine pairing not given here; also: peptide displayed as fusion to phage pIII
notes: as for B1

Legend:
PSMA Fab [1] = target: T1, PSMA Fab (biotinylated (site not stated)); experiment: phage ELISA, captured anti-PSMA Fab pre-incubated with PSMA antigen as competitor, anti-M13 HRP detection
T1 construct: Biotinylated PSMA Fab captured on neutravidin coated plates in the phage ELISA; also called Anti-PSMA Fab; 006 PSMA Fab

PSMA Fab [2] = target: T1, PSMA Fab; experiment: phage ELISA, biotinylated anti-PSMA Fab on neutravidin plate, anti-M13 HRP detection
Protocol: (§1) Clonal phage were harvested as crude supernatants and screened via standard ELISAs. […] Prior to the addition of clonal phage. wells were incubated with blocking buffer and PSMA antigen or blocking buffer alone. Without washing or aspirating, clonal phage supernatants were then added to the wells and incubated for a short time. Wells were then washed followed by detection of bound phage using a horse radish conjugated anti-M13 antibody.

PSMA Fab (006 PSMA Fab) [3] = target: T2, PSMA Fab (006 PSMA Fab) (biotinylated (site not stated)); experiment: clonal phage ELISA on biotinylated PSMA Fab captured on neutravidin, anti-M13 HRP detection, competitor PSMA antigen
T2 construct: also called Anti-PSMA Fab

PSMA Fab (006 PSMA Fab) [4] = target: T2, PSMA Fab (006 PSMA Fab); experiment: clonal phage ELISA on biotinylated PSMA Fab captured on neutravidin, anti-M13 HRP detection, no PSMA antigen
Protocol: as §1

Anti-PSMA Fab [5] = target: T3, Anti-PSMA Fab (biotinylated (site not stated)); experiment: phage ELISA; biotinylated anti-PSMA Fab on neutravidin plate, anti-M13-HRP detection, no PSMA antigen
T3 construct: The biotinylated PSMA Fab was captured on neutravidin coated plates for the phage ELISA; also called 006 PSMA Fab

Anti-PSMA Fab [6] = target: T3, Anti-PSMA Fab; experiment: phage ELISA; captured anti-PSMA Fab pre-incubated with PSMA antigen as competitor
Protocol: as §1

| Binder | Phage binding ELISA signal, Anti-PSMA Fab in presence of PSMA antigen (PSMA Fab [1]) | Phage binding ELISA signal, Anti-PSMA Fab (PSMA Fab [2]) | Phage binding ELISA signal, Anti-PSMA Fab (Anti-PSMA Fab [5]) | Phage binding ELISA signal, Anti-PSMA Fab with PSMA antigen (Anti-PSMA Fab [6]) | also measured |
| --- | --- | --- | --- | --- | --- |
| B1 | 0.0843 | 2.26 |  |  |  |
| B2 | 0.0762 | 2.25 |  |  |  |
| B3 | 0.102 | 2.26 |  |  |  |
| PEFVCKPSWMCQGF [Phage-2959] |  |  |  |  | Phage binding ELISA signal, Anti-PSMA Fab with PSMA antigen (PSMA Fab (006 PSMA Fab) [3]): 0.0681; Phage binding ELISA signal, Anti-PSMA Fab (PSMA Fab (006 PSMA Fab) [4]): 2.26 |
| B4 |  |  | 2.23 | 0.114 |  |
| B5 |  |  | 2.24 | 0.125 |  |
| B6 |  |  | 2.24 | 0.0857 |  |
| AYEMCIPAWMCEGF [Phage-2957] |  |  |  |  | Phage binding ELISA signal, Anti-PSMA Fab with PSMA antigen (PSMA Fab (006 PSMA Fab) [3]): 0.0905; Phage binding ELISA signal, Anti-PSMA Fab (PSMA Fab (006 PSMA Fab) [4]): 2.27 |
| B7 | 0.114 | 2.26 |  |  |  |
| B8 |  |  | 2.23 | 0.0784 |  |
| ADPVCRPQWMCEGF [Phage-2961] |  |  |  |  | Phage binding ELISA signal, Anti-PSMA Fab with PSMA antigen (PSMA Fab (006 PSMA Fab) [3]): 0.11; Phage binding ELISA signal, Anti-PSMA Fab (PSMA Fab (006 PSMA Fab) [4]): 2.26 |
| B9 | 0.0712 | 2.26 |  |  |  |
| WEQRCVPEWMCVGF [Phage-2960] |  |  |  |  | Phage binding ELISA signal, Anti-PSMA Fab with PSMA antigen (PSMA Fab (006 PSMA Fab) [3]): 0.0987; Phage binding ELISA signal, Anti-PSMA Fab (PSMA Fab (006 PSMA Fab) [4]): 2.26 |
| B10 | 0.0968 | 2.26 |  |  |  |
| B11 | 0.073 | 2.24 |  |  |  |
| B12 |  |  | 2.24 | 0.0851 |  |
| B13 |  |  | 2.24 | 0.0893 |  |

| Binder | Phage binding ELISA signal, Anti-PSMA Fab in presence of PSMA antigen (PSMA Fab [1]) | Phage binding ELISA signal, Anti-PSMA Fab (PSMA Fab [2]) | Phage binding ELISA signal, Anti-PSMA Fab (Anti-PSMA Fab [5]) | Phage binding ELISA signal, Anti-PSMA Fab with PSMA antigen (Anti-PSMA Fab [6]) | also measured |
| --- | --- | --- | --- | --- | --- |
| EQPLCTPQWMCWGF [Phage-2958] |  |  |  |  | Phage binding ELISA signal, Anti-PSMA Fab with PSMA antigen (PSMA Fab (006 PSMA Fab) [3]): 0.0972; Phage binding ELISA signal, Anti-PSMA Fab (PSMA Fab (006 PSMA Fab) [4]): 2.27 |
| B14 |  |  | 2.24 | 0.0676 |  |
| B15 |  |  | 2.24 | 0.122 |  |
| B16 | 0.0617 | 2.25 |  |  |  |
| VDIQCKPLWMCIGM [Phage-2953] |  |  |  |  | Phage binding ELISA signal, Anti-PSMA Fab with PSMA antigen (PSMA Fab (006 PSMA Fab) [3]): 0.0643; Phage binding ELISA signal, Anti-PSMA Fab (PSMA Fab (006 PSMA Fab) [4]): 2.27 |
| B17 | 0.0732 | 2.25 |  |  |  |
| B18 | 0.125 | 2.26 |  |  |  |
| YLQFCKPVWMCTGF [Phage-2956] |  |  |  |  | Phage binding ELISA signal, Anti-PSMA Fab with PSMA antigen (PSMA Fab (006 PSMA Fab) [3]): 0.15; Phage binding ELISA signal, Anti-PSMA Fab (PSMA Fab (006 PSMA Fab) [4]): 2.27 |
| B19 | 0.108 | 2.25 |  |  |  |
| B20 | 0.106 | 2.26 |  |  |  |
| B21 |  |  | 2.23 | 0.11 |  |
| B22 | 0.0804 | 2.26 |  |  |  |
| TLMRCEPSWMCQGF [Phage-2954] |  |  |  |  | Phage binding ELISA signal, Anti-PSMA Fab with PSMA antigen (PSMA Fab (006 PSMA Fab) [3]): 0.0698; Phage binding ELISA signal, Anti-PSMA Fab (PSMA Fab (006 PSMA Fab) [4]): 2.27 |
| B23 |  |  | 2.23 | 0.0871 |  |
| TTAYCIPPWMCSGF [Phage-2955] |  |  |  |  | Phage binding ELISA signal, Anti-PSMA Fab with PSMA antigen (PSMA Fab (006 PSMA Fab) [3]): 0.15; Phage binding ELISA signal, Anti-PSMA Fab (PSMA Fab (006 PSMA Fab) [4]): 2.27 |
| B24 | 0.091 | 2.26 |  |  |  |
